In publication PMC6211538:

Tests used:
[1] = target: AMPA receptor GluA2 from rat with deletion of the disordered intracellular C-terminal domain (GluA2cryst) (rat) (UniProt P19491); test: small-angle neutron scattering (SANS), molecular weight by Fischer analysis; resting state (apo); 0.20 mg/ml (0.54 uM) GluA2 in D2O-based buffer, 20 mM Tris-DCl pH 7.5, 100 mM NaCl, 0.5 mM matched-out deuterated DDM; 10°C; oligomeric state from MW against the construct's 368 kDa
[2] = target: AMPA receptor GluA2 from rat with deletion of the disordered intracellular C-terminal domain (GluA2cryst) (rat) (UniProt P19491); test: small-angle neutron scattering (SANS), molecular weight by Fischer analysis; with 10 mM AMPA, pH 5.5; 0.17 mg/ml (0.46 uM) GluA2 in D2O-based buffer with 0.5 mM matched-out deuterated DDM; 10°C; oligomeric state from MW against the construct's 368 kDa
[3] = target: AMPA receptor GluA2 from rat with deletion of the disordered intracellular C-terminal domain (GluA2cryst) (rat) (UniProt P19491); test: small-angle neutron scattering (SANS), molecular weight by Fischer analysis; with 1 mM AMPA, pH 7.5; 0.31 mg/ml (0.84 uM) GluA2 in D2O-based buffer with 0.5 mM matched-out deuterated DDM; 10°C; oligomeric state from MW against the construct's 368 kDa
[4] = target: AMPA receptor GluA2 from rat with deletion of the disordered intracellular C-terminal domain (GluA2cryst) (rat) (UniProt P19491); test: small-angle neutron scattering (SANS), molecular weight by Fischer analysis; with 1 mM GYKI-53655; 0.31 mg/ml (0.84 uM) GluA2 in D2O-based buffer with 0.5 mM matched-out deuterated DDM; 10°C; oligomeric state from MW against the construct's 368 kDa

stoichiometry N [1]: 4
stoichiometry N [2]: 4
stoichiometry N [3]: 4
stoichiometry N [4]: 4
Substance: AMPA receptor GluA2 from rat with deletion of the disordered intracellular C-terminal domain (GluA2cryst) (from UniProt P19491 22-883)
